Measurements taken from patent US20230174653A1.
Like-named read-outs stand apart in the source and are kept apart here. One block for each molecule: values may come before it.

Columns and labels:
[1] = target: T1, B7-H3 (CD276), endogenous on tumor cells (LM7, A549, U373) (UniProt Q5ZPR3); assay: cell-based or functional assay
T1 sequence (looked up): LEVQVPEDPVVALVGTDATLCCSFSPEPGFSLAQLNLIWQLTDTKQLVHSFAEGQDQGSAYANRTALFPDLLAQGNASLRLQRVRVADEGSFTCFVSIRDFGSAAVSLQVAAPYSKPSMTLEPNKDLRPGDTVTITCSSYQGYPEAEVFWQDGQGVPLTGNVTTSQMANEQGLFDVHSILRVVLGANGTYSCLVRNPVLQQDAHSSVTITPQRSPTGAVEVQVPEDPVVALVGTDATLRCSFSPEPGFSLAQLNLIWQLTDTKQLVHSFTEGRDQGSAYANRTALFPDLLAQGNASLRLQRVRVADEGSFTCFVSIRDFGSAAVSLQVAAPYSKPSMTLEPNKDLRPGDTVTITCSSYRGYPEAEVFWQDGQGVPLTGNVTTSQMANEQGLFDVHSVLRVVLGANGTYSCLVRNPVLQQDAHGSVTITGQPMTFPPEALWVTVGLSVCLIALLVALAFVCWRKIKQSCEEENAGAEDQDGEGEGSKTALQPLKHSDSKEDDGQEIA

[2] = target: T1, B7-H3 (CD276), endogenous on tumor cells (LM7, A549, U373); assay: cell-based or functional assay; remark: listed apart in the source

Molecule: CD8α/4-1BB B7-H3-CAR (second generation B7-H3-CAR with MGA271-derived scFv, CD8α hinge/transmembrane domain, 4-1BB costimulatory domain and CD3ζ), expressed on human T cells
- cytolysis of LM7 tumor cells, impedance assay (xCelligence), 1st stimulation, 0.5:1 T-cell to tumor cell ratio [1]: 100%

Molecule: CD8α/CD28.4-1BB third generation (3G) B7-H3-CAR (4-1BB signaling domain inserted into the CD8α/CD28-CAR), expressed on human T cells
- cytolysis of LM7 tumor cells, impedance assay (xCelligence), 1st stimulation [1]: 100%

B2: CD28/4-1BB B7-H3-CAR (second generation B7-H3-CAR with MGA271-derived scFv, CD28 hinge/transmembrane domain, 4-1BB costimulatory domain and CD3ζ), expressed on … (protein)
chain: EVQLVESGGGLVQPGGSLRLSCAASGFTFSSFGMHWVRQAPGKGLEWVAYISSDSSAIYYADTVKGRFTISRDNAKNSLYLQMNSLRDEDTAVYYCGRGRENIYYGSRLDYWGQGTTVTVSSGGGGSGGGGSGGGGSDIQLTQSPSFLSASVGDRVTITCKASQNVDTNVAWYQQKPGKAPKALIYSASYRYSGVPSRFSGSGSGTDFTLTISSLQPEDFATYYCQQYNNYPFTFGQGTKLEIKIEVMYPPPYLDNEKSNGTIIHVKGKHLCPSPLFPGPSKPFWVLVVVGGVLACYSLLVTVAFIIFWVKRGRKKLLYIFKQPFMRPVQTTQEEDGCSCRFPEEEEGGCELRVKFSRSADAPAYQQGQNQLYNELNLGRREEYDVLDKRRGRDPEMGGKPRRKNPQEGLYNELQKDKMAEAYSEIGMKGERRRGKGHDGLYQGLSTATKDTYDALHMQALPPR
- cytolysis of LM7 tumor cells, impedance assay (xCelligence), 1st stimulation, 0.5:1 T-cell to tumor cell ratio [2]: 100%

Continued, values first:

- cytolysis of LM7 tumor cells, impedance assay (xCelligence), 1st stimulation [1]: 100%
- cytolysis of LM7 tumor cells, impedance assay (xCelligence), 1st stimulation, 0.5:1 T-cell to tumor cell ratio [1]: 100%
Molecule: CD8α/CD28 B7-H3-CAR (second generation B7-H3-CAR with MGA271-derived scFv, CD8α hinge/transmembrane domain, CD28 costimulatory domain and CD3ζ), expressed on human T cells

- cytolysis of LM7 tumor cells, impedance assay (xCelligence), 1st stimulation, 0.5:1 T-cell to tumor cell ratio [2]: 100%
B1: CD28/CD28 B7-H3-CAR (second generation B7-H3-CAR with MGA271-derived scFv, CD28 hinge/transmembrane domain, CD28 costimulatory domain and CD3ζ), expressed on … (protein)
chain: EVQLVESGGGLVQPGGSLRLSCAASGFTFSSFGMHWVRQAPGKGLEWVAYISSDSSAIYYADTVKGRFTISRDNAKNSLYLQMNSLRDEDTAVYYCGRGRENIYYGSRLDYWGQGTTVTVSSGGGGSGGGGSGGGGSDIQLTQSPSFLSASVGDRVTITCKASQNVDTNVAWYQQKPGKAPKALIYSASYRYSGVPSRFSGSGSGTDFTLTISSLQPEDFATYYCQQYNNYPFTFGQGTKLEIKIEVMYPPPYLDNEKSNGTIIHVKGKHLCPSPLFPGPSKPFWVLVVVGGVLACYSLLVTVAFIIFWVRSKRSRLLHSDYMNMTPRRPGPTRKHYQPYAPPRDFAAYRSRVKFSRSADAPAYQQGQNQLYNELNLGRREEYDVLDKRRGRDPEMGGKPRRKNPQEGLYNELQKDKMAEAYSEIGMKGERRRGKGHDGLYQGLSTATKDTYDALHMQALPPR
